Laboratory results from patent US20050282743A1, “Molecular interactions in cells” (Arbor Vita Corporation, priority 2001, published 2005).
Structures can show the parent of a compound that is named as a salt. One block for each compound: values may come before it. Ends that are not written are not given here. * marks the point of attachment. Biotin = O=C1N[C@H]2[C@H](CS[C@H]2CCCCC(=O)*)N1

Legend:
Assay type in all cases: binding
[1] = molecular target: T1, ZO-2 (1/3) : DNAM (22L) (Homo sapiens, UniProt Q9UDY2); test: G assay with FDA approved drug (Example 7, TABLE 10B)
T1 construct: made in house; host or cells: E. coli (DH5α, BL21 or JM109)
T1 sequence (Q9UDY2 27-122): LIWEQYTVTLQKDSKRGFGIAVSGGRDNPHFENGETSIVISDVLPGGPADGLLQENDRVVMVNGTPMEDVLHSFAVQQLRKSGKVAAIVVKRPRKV
Procedure: (§1) For certain of the PDZ proteins and PL proteins shown to bind together and for which Kd values had been obtained, additional testing was conducted to determine whether certain pharmaceutical compounds would act to antagonize or agonize the interactions. Assays were conducted as for the G′ assay described supra both in the presence and absence of test compound, except that 50 ul of a 10 uM solution of the biotinylated PL peptide is allowed to react with the surface bearing the PDZ-domain polypeptide instead of a 20 uM solution as specified in step (2) of the assay.
(§2) In both tables, the first column (left to right) entitled “PDZ domain” lists the gene name of GST-PDZ domain fusion (see TABLE 9). Entries having two numbers separated by a slash indicate which PDZ domain was utilized. For example, in TABLE 10A, the entry for ZO-3 is 1/3. This means that PDZ domain 1 of 3 was used.
(§3) The second column labeled “PL” indicates the name of the PDZ ligand (see TABLES 10A and 10B) interacting with the PDZ domain. The third column entitled “Drug” lists the common or trade name of pharmaceutical compound tested and found to modulate the specific PDZ-PL interaction (suppliers and chemical information are listed in TABLE 11). The final column with the heading “Change in OD” indicates the change in absorbance at 450 nm of the assay in the absence (first number) or presence (second number) of chemical compound.
(§4) Many FDA approved drugs have unknown mechanism of function. It is quite possible that some of these drugs function by disrupting or increasing PDZ/PL interactions. This possibility was examined by using the ‘G Assay’ (Example 3 section D). FDA approved drugs were incubated in the presence of the labeled peptide and compared to the same interaction without drug to determine if there was an effect on specific PDZ:PL interactions (drugs added with peptide at step 9 in Example 3D). The primary focus of this experiment was on drugs involved in treatment of depression (amitriptyline, desipramine, trimipramine, benztropine, and nortryptilline) and epilepsy (valproic acid). No modes of action are known for these drugs.
(§5) Therapeutic dose was determined by guidelines given in the Physician's Desk Reference and in the assay, 200 times this amount was used. If a dosage range was given, the upper end of the range was used. Each interaction listed in TABLES 10A & B was tested in the ‘G Assay’ (see Example 3) against each of the drugs listed in TABLE 11. The concentration of GST-fusion protein and peptide used in the assay represent the Kd and were determined by titration. These values can be found in TABLE 7. The drugs were added to the peptide before addition to the well containing the PDZ protein. Otherwise, the assay was carried out as described and read at 450 nm after 30 minutes of developing. For the sequences of the PDZs and PLs used in these tests, see TABLES 8 & 9.
(§6) List of interactions and therapeutics for which a modulation of binding was observed. Concentrations at which the GST-PDZ fusion protein and labeled peptide were used can be found in Table 7 or Table 12.

[2] = test system: hSyntenin : Presenilin (115L); test: G assay with FDA approved drug (Example 7, TABLE 10A); conditions: OD in absence of drug 1.1; drug concentration per TABLE 11; read after 30 minutes
Procedure: as §1, §2, §3, §4, §5, §6

[3] = molecular target: T2, PDZ protein (GST-PDZ fusion) (Homo sapiens, UniProt P78352); test: G' assay (10 uM PL peptide), results of TABLE 7 and TABLE 12; conditions: PDZ PSD95, PDZ Domain 1, 2, 3
T2 construct: made in house; host or cells: E. coli (DH5alpha, BL21 or JM109)
Procedure, shortened: (§7)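 Binding classes derive from A450 nm of bound biotin-tagged PL peptide. A score of 5 needs A450 above 4 in more than two repeats.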

[4] = molecular target: T3, PDZ protein (GST-PDZ fusion) (Homo sapiens, UniProt O14907); test: as above; conditions: PDZ TIP1, PDZ Domain 1
T3 construct: made in house; host or cells: E. coli (DH5alpha, BL21 or JM109)
T3 sequence (O14907 1-124): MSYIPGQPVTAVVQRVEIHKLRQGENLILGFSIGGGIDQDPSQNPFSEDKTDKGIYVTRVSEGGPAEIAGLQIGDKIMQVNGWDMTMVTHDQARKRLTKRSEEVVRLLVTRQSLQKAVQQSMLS
Procedure, shortened: as §7

[5] = molecular target: T4, PDZ protein (GST-PDZ fusion) (Homo sapiens, UniProt O15021); test: as above; conditions: PDZ KIAA0303, PDZ Domain 1
T4 construct: made in house; host or cells: E. coli (DH5alpha, BL21 or JM109)
Procedure, shortened: as §7

[6] = molecular target: T5, PDZ protein (GST-PDZ fusion) (Homo sapiens, UniProt Q6P0Q8); test: as above; conditions: PDZ KIAA807
T5 construct: made in house; host or cells: E. coli (DH5alpha, BL21 or JM109)
T5 sequence (Q6P0Q8 whole entry, the tested form may be a part): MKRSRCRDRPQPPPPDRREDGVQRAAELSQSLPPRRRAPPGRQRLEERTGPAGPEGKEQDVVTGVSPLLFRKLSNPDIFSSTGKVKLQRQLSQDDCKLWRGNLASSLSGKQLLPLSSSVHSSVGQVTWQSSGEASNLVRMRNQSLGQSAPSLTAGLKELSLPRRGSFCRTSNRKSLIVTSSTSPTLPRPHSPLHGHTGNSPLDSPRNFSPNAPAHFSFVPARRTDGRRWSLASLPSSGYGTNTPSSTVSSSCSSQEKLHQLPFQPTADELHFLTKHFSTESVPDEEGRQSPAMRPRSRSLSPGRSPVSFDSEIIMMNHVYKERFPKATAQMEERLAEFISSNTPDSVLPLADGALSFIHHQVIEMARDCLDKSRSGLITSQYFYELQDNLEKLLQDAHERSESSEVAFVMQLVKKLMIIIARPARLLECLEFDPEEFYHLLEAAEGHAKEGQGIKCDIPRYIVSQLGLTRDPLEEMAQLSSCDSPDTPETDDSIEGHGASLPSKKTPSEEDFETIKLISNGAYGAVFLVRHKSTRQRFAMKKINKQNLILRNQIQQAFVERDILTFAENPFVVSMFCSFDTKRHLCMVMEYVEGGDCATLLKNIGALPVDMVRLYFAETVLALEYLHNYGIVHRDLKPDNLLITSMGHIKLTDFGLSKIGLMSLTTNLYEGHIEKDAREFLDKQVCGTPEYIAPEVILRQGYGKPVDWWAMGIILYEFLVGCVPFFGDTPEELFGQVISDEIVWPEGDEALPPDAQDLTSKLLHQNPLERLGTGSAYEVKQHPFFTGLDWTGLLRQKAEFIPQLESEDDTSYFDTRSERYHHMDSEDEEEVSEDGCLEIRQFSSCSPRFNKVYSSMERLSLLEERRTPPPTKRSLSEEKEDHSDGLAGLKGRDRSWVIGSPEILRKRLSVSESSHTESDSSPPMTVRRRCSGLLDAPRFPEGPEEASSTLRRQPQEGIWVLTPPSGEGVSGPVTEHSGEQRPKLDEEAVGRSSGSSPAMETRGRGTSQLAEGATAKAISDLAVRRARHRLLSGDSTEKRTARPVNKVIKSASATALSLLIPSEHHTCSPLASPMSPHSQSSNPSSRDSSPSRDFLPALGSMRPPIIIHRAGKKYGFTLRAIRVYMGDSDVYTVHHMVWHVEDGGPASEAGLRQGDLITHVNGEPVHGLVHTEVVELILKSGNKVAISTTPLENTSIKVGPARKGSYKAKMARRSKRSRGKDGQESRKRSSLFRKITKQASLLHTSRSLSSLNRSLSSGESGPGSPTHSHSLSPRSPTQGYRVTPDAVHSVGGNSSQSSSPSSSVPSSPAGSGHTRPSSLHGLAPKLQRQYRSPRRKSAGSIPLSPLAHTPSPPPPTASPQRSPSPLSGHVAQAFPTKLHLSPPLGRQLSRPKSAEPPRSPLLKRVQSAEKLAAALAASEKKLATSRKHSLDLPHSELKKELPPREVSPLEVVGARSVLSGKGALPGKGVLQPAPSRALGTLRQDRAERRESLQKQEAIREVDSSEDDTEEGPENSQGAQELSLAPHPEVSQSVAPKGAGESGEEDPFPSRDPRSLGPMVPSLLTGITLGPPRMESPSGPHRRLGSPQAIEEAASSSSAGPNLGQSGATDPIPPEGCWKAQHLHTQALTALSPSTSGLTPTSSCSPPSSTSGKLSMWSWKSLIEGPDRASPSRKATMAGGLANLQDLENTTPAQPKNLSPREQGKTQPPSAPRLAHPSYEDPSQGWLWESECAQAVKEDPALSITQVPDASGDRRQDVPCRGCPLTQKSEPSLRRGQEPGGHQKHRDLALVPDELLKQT
Procedure, shortened: as §7

[7] = test system: PDZ protein (GST-PDZ fusion); test: as above
Procedure, shortened: as §7

[8] = molecular target: T6, PDZ protein (GST-PDZ fusion) (Homo sapiens, UniProt Q5TCQ9); test: as above; conditions: PDZ KIAA1634, PDZ Domain 2
T6 construct: made in house; host or cells: E. coli (DH5alpha, BL21 or JM109)
T6 sequence (Q5TCQ9 1-1481): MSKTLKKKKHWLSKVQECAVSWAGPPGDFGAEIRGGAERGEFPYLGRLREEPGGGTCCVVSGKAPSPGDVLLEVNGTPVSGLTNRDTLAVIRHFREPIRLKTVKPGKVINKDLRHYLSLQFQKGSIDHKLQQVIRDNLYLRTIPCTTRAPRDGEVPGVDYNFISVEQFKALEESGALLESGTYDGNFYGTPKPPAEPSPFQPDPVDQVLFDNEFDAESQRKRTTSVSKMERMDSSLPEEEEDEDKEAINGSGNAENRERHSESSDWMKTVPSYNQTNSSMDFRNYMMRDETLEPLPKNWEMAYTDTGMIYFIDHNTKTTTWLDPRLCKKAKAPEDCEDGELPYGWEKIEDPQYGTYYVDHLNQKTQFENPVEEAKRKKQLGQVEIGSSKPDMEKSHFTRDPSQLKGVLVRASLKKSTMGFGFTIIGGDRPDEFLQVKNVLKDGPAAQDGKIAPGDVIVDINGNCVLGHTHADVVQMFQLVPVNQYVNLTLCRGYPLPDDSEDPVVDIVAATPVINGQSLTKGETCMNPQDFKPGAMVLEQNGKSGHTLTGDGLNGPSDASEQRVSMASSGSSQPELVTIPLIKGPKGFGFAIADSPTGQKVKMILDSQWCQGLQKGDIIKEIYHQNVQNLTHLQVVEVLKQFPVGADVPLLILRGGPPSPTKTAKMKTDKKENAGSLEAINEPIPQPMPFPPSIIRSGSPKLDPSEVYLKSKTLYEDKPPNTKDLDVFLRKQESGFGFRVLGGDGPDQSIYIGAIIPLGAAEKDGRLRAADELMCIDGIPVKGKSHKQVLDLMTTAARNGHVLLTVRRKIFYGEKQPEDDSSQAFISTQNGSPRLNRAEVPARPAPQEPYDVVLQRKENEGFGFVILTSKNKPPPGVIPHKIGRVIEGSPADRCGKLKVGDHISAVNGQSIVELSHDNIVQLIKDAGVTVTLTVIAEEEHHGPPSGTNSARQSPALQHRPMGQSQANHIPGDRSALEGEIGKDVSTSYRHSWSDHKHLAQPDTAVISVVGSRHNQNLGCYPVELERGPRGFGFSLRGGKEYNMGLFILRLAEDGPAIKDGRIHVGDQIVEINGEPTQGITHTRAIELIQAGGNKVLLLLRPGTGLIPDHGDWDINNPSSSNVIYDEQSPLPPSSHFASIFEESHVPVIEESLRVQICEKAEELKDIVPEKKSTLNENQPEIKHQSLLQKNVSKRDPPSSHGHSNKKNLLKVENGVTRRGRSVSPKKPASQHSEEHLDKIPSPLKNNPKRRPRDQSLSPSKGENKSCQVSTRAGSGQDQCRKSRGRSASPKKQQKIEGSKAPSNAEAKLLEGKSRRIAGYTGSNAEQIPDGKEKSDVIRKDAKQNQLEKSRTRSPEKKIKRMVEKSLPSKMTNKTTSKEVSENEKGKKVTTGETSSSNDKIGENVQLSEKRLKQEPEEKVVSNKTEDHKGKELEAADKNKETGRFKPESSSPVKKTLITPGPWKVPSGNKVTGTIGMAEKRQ
Procedure, shortened: as §7

[9] = molecular target: T7, PDZ protein (GST-PDZ fusion) (Homo sapiens, UniProt Q12923); test: as above; conditions: PDZ PTPL-1, PDZ Domain 2
T7 construct: made in house; host or cells: E. coli (DH5alpha, BL21 or JM109)
T7 sequence (Q12923 whole entry, the tested form may be a part): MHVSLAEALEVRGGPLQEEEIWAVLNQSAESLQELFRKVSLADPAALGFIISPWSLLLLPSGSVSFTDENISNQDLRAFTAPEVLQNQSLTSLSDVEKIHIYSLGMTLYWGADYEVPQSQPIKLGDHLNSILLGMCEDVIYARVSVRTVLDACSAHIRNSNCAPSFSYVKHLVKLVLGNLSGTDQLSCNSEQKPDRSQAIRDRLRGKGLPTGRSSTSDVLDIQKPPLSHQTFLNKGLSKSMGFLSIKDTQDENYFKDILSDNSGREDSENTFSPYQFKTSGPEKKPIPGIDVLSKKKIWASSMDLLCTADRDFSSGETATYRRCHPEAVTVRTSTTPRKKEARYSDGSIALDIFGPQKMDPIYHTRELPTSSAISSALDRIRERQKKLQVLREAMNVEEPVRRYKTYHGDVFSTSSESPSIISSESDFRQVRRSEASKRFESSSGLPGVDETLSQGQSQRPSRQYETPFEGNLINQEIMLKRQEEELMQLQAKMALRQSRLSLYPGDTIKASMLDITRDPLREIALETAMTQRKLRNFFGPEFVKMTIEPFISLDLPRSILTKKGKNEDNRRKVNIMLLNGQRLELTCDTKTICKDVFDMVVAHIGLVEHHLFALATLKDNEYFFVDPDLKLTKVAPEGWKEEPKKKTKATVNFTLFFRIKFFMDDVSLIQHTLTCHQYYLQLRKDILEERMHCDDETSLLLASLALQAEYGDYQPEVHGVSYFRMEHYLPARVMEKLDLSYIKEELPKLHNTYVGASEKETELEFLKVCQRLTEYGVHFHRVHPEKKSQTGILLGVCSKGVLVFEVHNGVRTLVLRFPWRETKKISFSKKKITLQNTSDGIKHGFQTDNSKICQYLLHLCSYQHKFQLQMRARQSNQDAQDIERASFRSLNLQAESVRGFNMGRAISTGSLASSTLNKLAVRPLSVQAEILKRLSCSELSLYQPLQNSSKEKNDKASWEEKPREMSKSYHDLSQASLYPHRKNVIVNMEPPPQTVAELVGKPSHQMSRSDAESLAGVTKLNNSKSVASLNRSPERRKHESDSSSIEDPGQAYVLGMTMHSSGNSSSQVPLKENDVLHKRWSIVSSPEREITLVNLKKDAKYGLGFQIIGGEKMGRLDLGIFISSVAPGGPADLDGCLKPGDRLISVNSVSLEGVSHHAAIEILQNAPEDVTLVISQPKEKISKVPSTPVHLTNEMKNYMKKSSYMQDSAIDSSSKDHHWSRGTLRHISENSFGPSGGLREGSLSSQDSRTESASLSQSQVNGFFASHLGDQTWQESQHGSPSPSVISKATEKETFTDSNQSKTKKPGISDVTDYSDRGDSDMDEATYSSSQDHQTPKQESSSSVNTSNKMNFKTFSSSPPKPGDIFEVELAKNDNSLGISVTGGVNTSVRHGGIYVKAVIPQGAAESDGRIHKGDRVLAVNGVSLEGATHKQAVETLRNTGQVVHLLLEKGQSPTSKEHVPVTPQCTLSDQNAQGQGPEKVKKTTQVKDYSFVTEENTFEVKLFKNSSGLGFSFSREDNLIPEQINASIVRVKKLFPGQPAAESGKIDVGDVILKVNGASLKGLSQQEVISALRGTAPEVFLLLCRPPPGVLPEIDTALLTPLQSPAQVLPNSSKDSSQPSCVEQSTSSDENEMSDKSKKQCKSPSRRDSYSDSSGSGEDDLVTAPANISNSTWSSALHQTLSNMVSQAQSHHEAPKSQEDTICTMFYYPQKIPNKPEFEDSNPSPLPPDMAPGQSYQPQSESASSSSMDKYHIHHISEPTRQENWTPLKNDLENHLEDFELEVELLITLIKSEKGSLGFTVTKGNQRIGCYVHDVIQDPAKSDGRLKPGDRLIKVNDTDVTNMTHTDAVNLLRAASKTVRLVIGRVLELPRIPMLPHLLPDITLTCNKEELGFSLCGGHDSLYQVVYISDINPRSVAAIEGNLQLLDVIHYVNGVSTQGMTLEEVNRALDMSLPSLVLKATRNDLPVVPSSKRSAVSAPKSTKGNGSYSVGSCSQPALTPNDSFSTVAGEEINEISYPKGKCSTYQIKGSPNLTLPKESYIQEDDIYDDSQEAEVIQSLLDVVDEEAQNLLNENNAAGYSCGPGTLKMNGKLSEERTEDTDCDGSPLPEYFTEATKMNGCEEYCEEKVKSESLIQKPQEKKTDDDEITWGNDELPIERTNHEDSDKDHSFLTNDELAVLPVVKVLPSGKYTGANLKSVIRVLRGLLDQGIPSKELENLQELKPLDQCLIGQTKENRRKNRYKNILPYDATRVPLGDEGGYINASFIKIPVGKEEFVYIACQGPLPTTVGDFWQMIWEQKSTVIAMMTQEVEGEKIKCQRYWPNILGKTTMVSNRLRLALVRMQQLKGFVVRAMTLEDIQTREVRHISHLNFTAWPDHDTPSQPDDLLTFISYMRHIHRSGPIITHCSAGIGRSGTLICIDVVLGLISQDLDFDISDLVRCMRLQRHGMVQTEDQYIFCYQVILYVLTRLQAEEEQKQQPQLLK
Procedure, shortened: as §7

[10] = molecular target: T8, PSD95 (PDZ Domain 1, 2, 3) (Homo sapiens, UniProt P78352); test: G' assay, TABLE 12; conditions: A450 nm class of biotinylated PL peptide bound; 0 in conc columns = peptide 10 uM, protein 5 ug/ml
T8 construct: When more than one PDZ domain was cloned, the DNA portion cloned represents the PDZ domains and the cDNA portion located between individual domains; made in house; host or cells: E. coli (DH5alpha, BL21 or JM109)
T8 sequence (P78352 58-398 limits assumed): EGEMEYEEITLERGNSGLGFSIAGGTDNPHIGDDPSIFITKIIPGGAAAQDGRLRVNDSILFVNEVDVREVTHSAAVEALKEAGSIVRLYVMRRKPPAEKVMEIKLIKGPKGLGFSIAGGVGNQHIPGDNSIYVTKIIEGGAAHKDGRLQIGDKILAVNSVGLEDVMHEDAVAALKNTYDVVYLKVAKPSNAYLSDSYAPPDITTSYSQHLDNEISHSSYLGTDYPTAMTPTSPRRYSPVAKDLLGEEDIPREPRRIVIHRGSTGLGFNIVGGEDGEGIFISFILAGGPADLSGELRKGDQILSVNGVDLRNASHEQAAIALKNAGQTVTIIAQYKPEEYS
Procedure: (§8) The third column labeled “Peptide Optimal Concentration” in the tables is a number reflective of the binding interaction between the PL protein and PDZ protein. […] The column labeled “Protein Optimal Concentration” refers to the protein concentration used to assay PL interaction (in ug/ml); a ‘0’ is indicative of 5 ug/ml protein concentration; any other value represents the concentration (in ug/ml) used to determine the dissociation constant for a given interaction.
(§9) Finally, the seventh column labeled “Classification” is another measure of the level of binding. In particular, it provides an absorbance value at 450 nm which indicates the amount of PL peptide bound to the PDZ protein. The following numerical values have the following meanings: ‘1’—A450 nm 0-1; ‘2’—A450 nm 1-2; ‘3’—A450 nm 2-3; ‘4’—A450 nm 3-4; ‘5’—A450 nm of 4 more than 2× repeated; ‘0’—A450 nm 0, i.e., not found to interact. Thus, higher numbers indicate stronger interactions.
(§10) For convenience, the assay conditions described in this section are referred to as the “G′ assay” and the “G″ assay,” with the specific conditions described in the preceding section on G assays being referred to as the “G^0 assay.” The “G′ assay” is identical to the “G^0 assay” except at step (2) the peptide concentration is 10 uM instead of 20 uM. […] Correspondingly, it slightly increases the certainty that detected interactions are of sufficient affinity and half-life to be of biological importance and useful therapeutic targets.

[11] = molecular target: T9, DLG1 (PDZ Domain 1, 2) (Homo sapiens, UniProt Q12959); test: G' assay, TABLE 12; conditions: A450 nm class of biotinylated PL peptide bound; 0 in conc columns = peptide 10 uM, protein 5 ug/ml
T9 construct: made in house; host or cells: E. coli (DH5alpha, BL21 or JM109)
T9 sequence (Q12959 213-413 limits assumed): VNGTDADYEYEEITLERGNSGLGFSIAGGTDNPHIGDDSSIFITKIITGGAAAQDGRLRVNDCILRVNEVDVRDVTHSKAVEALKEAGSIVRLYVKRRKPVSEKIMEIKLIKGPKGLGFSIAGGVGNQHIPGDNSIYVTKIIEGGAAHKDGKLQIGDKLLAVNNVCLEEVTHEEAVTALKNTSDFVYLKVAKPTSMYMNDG
Procedure: as §8, §9, §10

[12] = molecular target: T10, NeDLG (PDZ Domain 1, 2) (Homo sapiens, UniProt Q92796); test: G' assay, TABLE 12; conditions: A450 nm class of biotinylated PL peptide bound; 0 in conc columns = peptide 10 uM, protein 5 ug/ml
T10 construct: When more than one PDZ domain was cloned, the DNA portion cloned represents the PDZ domains and the cDNA portion located between individual domains; made in house; host or cells: E. coli (DH5alpha, BL21 or JM109)
T10 sequence (Q92796 129-315 limits assumed): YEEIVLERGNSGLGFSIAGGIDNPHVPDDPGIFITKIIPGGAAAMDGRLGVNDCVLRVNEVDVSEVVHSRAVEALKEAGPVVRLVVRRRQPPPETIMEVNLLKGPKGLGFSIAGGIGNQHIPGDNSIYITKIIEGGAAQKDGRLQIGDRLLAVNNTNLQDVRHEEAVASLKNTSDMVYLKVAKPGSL
Procedure: as §8, §9, §10

Compound: CNCCC=C1c2ccccc2CCc2ccccc21 [Nortryptilline, NORTRIPTYLINE HYDROCHLORIDE]
CHANGE IN OD: absorbance at 450 nm in presence of drug ([1]; OD in absence of drug 2.1, drug concentration per TABLE 11, read after 30 minutes): 2.1 to 0.5
antagonistic effect, binding relative to absence of drug ([1]; ZO-2 domain 1 and DNAM-1): 4.2 fold

Compound: CC(CN(C)C)CN1c2ccccc2CCc2ccccc21 (centres unmarked) [Trinipramine, TRIMIPRAMINE MALEATE]
Change in OD: absorbance at 450 nm in presence of drug [2]: 1.1 to 2.2

Classification [3]: 5 (A450 nm of 4 more than 2× repeated)
Classification [4]: 5 (A450 nm of 4 more than 2× repeated)
Classification [5]: 4 (A450 nm 3-4)
Classification [6]: 4 (A450 nm 3-4)
Compound: A2AB_HUMAN (modified) (Biotin-QDFRRAFRRILARPWTQTAW; not fully specified)
Classification ([7]; PDZ BAI-1, PDZ Domain 2): 4 (A450 nm 3-4)
Classification ([7]; PDZ BAI-1, PDZ Domain 4): 5 (A450 nm of 4 more than 2× repeated)

Classification [8]: 1 (A450 nm 0-1)
Classification [9]: 1 (A450 nm 0-1)
Classification [10]: 1 (A450 nm 0-1)
Classification [11]: 1 (A450 nm 0-1)
Classification [12]: 2 (A450 nm 1-2)
Compound: HPTDITGLPNLSDPSVSTVV (Biotin-HPTDITGLPNLSDPSVSTVV) [NMDA R2C]
